Test results as given in the supplement of paper PMC12042874.
± gives the uncertainty stated by the source.

Assay: amyloid nucleation score (Sup35N fusion, yeast selection) (log enrichment); library NNK3; higher = more nucleation; inactive = no reads after selection
How it was run: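 Sup35N was fused to peptides of 20 random codons and expressed in psi-negative yeast, which were induced with 100 μM copper sulfate for 24 hours and then grown on medium lacking adenine and uracil for 7 days at 30°C. Plasmid inserts from input and output were sequenced on Illumina. The nucleation score is the DiMSum log enrichment of output over input reads, centred on the mode score of non-aggregating sequences. Sequences with under 100 input reads were left out, and random libraries had three technical output replicates.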

SACECAPTTSRIRPGSSATR
amyloid nucleation score: inactive

YFFSDNRNFRVNPVSNR
amyloid nucleation score: inactive

DYNILQSRMSYRAYMCSLHV
amyloid nucleation score: inactive

SGSLGFYTP
amyloid nucleation score: inactive

PDKWSPGAYVKWWVGTKVQM
amyloid nucleation score: inactive

LYMFHCAFILSIFMFHTPVH
amyloid nucleation score: inactive

PLWSRCLYRLSAGGACSVWK
amyloid nucleation score: inactive

YTSLCASVNGGLTIS
amyloid nucleation score: -0.464 ± 0.8

FYVNINFSELVSVDTISSFI
amyloid nucleation score: 0.208 ± 0.31

YPRPLFVRNLDVFHWLYTAV
amyloid nucleation score: inactive

YGPKV
amyloid nucleation score: inactive

LWMCLLMRRR
amyloid nucleation score: inactive

CFSTPCLCQSNELANIGSPT
amyloid nucleation score: inactive

GPGSYWEMRTN
amyloid nucleation score: inactive

TGARMVLCIFGIYSMYTLHN
amyloid nucleation score: 1.99 ± 0.074

GRMFVNVNFAIQCYMAFTYL
amyloid nucleation score: 2.42 ± 0.071

WIVVENW
amyloid nucleation score: inactive

FISLVPLLSLYRPWVKK
amyloid nucleation score: 0.836 ± 0.18

SSYLPHHISSQRLSSQEPAD
amyloid nucleation score: inactive

SNLFFSDWTLCCRCIVLVFK
amyloid nucleation score: 1.6 ± 0.097

ISSVQISRAFPQHRTRRN
amyloid nucleation score: inactive

IKSERIWDM
amyloid nucleation score: inactive

NCICLSGHFGHL
amyloid nucleation score: 2.24 ± 0.091

FQYRLTVEGMSWWTGGW
amyloid nucleation score: inactive

CDRLYSNLLRVAAMAPKASW
amyloid nucleation score: inactive

HYWQYMFYSLHFVYRS
amyloid nucleation score: inactive

MDKYTRTRPQTRGRAVSCYY
amyloid nucleation score: inactive

RVYVAWTTCSADKKNSNIMQ
amyloid nucleation score: 0.939 ± 0.12

SRILRLRVSSSHVERYFKLF
amyloid nucleation score: inactive

NNPLLIRDLHLTKVDISAVC
amyloid nucleation score: inactive

FGRLTV
amyloid nucleation score: inactive

CIGWRIM
amyloid nucleation score: inactive

SWMDRILVRYWVVLDNRNFV
amyloid nucleation score: inactive

NRMQVMLSVVRSSLFVWMQW
amyloid nucleation score: inactive

GVVSCHSFSRRRKALRGYSS
amyloid nucleation score: inactive

LDFSPWKFSTVGSRSSGMNG
amyloid nucleation score: inactive

LKMSLPYNMMVIILKRGGAY
amyloid nucleation score: inactive

VFPFSSFFKFLQRSWCGRDE
amyloid nucleation score: 1.22 ± 0.12

GVHHDCDYCRYLDDDVKLWW
amyloid nucleation score: inactive

SSVKRYLAVRWCSESMHTRW
amyloid nucleation score: inactive

LGWLVGSGKVNRVRPGSLNS
amyloid nucleation score: inactive

MRIRIPTSNNEGYPIFMSAL
amyloid nucleation score: inactive

TTRLNFENVNVTLLNYKSMG
amyloid nucleation score: 1.19 ± 0.069

SVSLAHFGSRKLVFSG
amyloid nucleation score: inactive

SLGYHLYRHARVCYRMCDIW
amyloid nucleation score: inactive

VVCGANHLRIFFVNRVMWD
amyloid nucleation score: inactive

YNGFSLIRFILFAHG
amyloid nucleation score: inactive

IFYVGNTLIFFIYMNWNRTY
amyloid nucleation score: 0.679 ± 0.24

YNSFEFGVMSAL
amyloid nucleation score: inactive

CRHRYLDCCFGNWHP
amyloid nucleation score: inactive

ANSYLTYN
amyloid nucleation score: inactive

SWASQWLFTPLSTVRSYIIL
amyloid nucleation score: inactive

FIIDVLTMASTLGCSVQN
amyloid nucleation score: inactive

FTPYICVVQLLCYCMILRIY
amyloid nucleation score: inactive

KISMSRVVFDNSSTGTIEGQ
amyloid nucleation score: inactive

FDLWNIILVYIPVNACC
amyloid nucleation score: 0.735 ± 0.11

PVGKMDLRIDKNSWSYLVLD
amyloid nucleation score: inactive

RERIFRICVFRMTSDKMTAT
amyloid nucleation score: inactive

PTAFWGFGF
amyloid nucleation score: inactive

LFLIGLLGRCDGDFYCIYYT
amyloid nucleation score: 1.04 ± 0.21

CLKGNFIVNSNVFKCVLWYS
amyloid nucleation score: inactive

NGRWRRFLWKNGCMELYRTG
amyloid nucleation score: 1.52 ± 0.085

VYMLYQFSCPGVDNWVCTES
amyloid nucleation score: inactive

NRPTAVSFCK
amyloid nucleation score: inactive

IYVRAFRWFMNKVTSTAWTI
amyloid nucleation score: inactive

FRQYHMRRVRLHGRRDVYGQ
amyloid nucleation score: inactive

WVTIESNLCIVSFNRSRSQK
amyloid nucleation score: 2.66 ± 0.075

RLFMGRS
amyloid nucleation score: inactive

TYVRHFVIRFMREGRSLGGR
amyloid nucleation score: inactive

CKGKSFFARSYS
amyloid nucleation score: inactive

DRYFLVDAKMFTGRTYLILG
amyloid nucleation score: -0.416 ± 0.88

GAVFSEWTQVRSCDCDGIDK
amyloid nucleation score: inactive

TNLVAIKYLFT
amyloid nucleation score: -0.022 ± 0.48

DLNDGWGWKRLTFQSVRCGE
amyloid nucleation score: inactive

GSSDNGFFCSLNMN
amyloid nucleation score: inactive

IDIVNL
amyloid nucleation score: inactive

SIPWLIVINTSHLLVIFNAI
amyloid nucleation score: inactive

DMIESSKRFFGSARIVLPEM
amyloid nucleation score: inactive

WLSYLLNG
amyloid nucleation score: 1.91 ± 0.096

YIYDSLWW
amyloid nucleation score: inactive

GLWNDCKRWLRRS
amyloid nucleation score: inactive

PRVIHWSLALNSSHCNFVFF
amyloid nucleation score: 2.67 ± 0.073

NSNFFL
amyloid nucleation score: inactive

RKHLDLT
amyloid nucleation score: inactive

CASSWLF
amyloid nucleation score: inactive

VLCGLARVKEVIASRRWECG
amyloid nucleation score: inactive

GCIKGVICLTHC
amyloid nucleation score: inactive

ECPAALLKKIVPYKKLHGRM
amyloid nucleation score: inactive

ITWWLVIVAARSEGSCSPFQ
amyloid nucleation score: 0.158 ± 0.27

SVYGACSRFPTNVVYNRSEY
amyloid nucleation score: inactive

DQECRA
amyloid nucleation score: inactive

TAKPYRDDNNGYSAYIHPCS
amyloid nucleation score: inactive

FCYSDLNYRWICYSRDVESS
amyloid nucleation score: inactive

IGLSLGCVFVMDNVLNARN
amyloid nucleation score: 1.55 ± 0.076

YLLLDYGTRSFLYDRYRYIR
amyloid nucleation score: 0.067 ± 0.68

VCITRMQVRLPTYLRVQSKA
amyloid nucleation score: inactive

LRVQHFDTFNPANGSTPKVG
amyloid nucleation score: inactive

TQFISLSGGRTHLSGFLVFG
amyloid nucleation score: 0.957 ± 0.14

VGLFRESPWEV
amyloid nucleation score: inactive

NLMGQTSGCQCVNTACLKPC
amyloid nucleation score: inactive

WGLGAINIDMRRRLDPRCKR
amyloid nucleation score: 0.312 ± 0.32

SKTPLCMNYFL
amyloid nucleation score: inactive

MNWFELFAHCLLKQFQRTLQ
amyloid nucleation score: inactive

SSNYNLKTLNSISRFFDLES
amyloid nucleation score: inactive

CCSRACEFVAVKFNRSSYNL
amyloid nucleation score: inactive

KATLRCCEPYVNDMVVANLK
amyloid nucleation score: inactive

YCTRNTCEIVGCILCGGLLS
amyloid nucleation score: 2.45 ± 0.086

QPCPYKLCQFFRKDA
amyloid nucleation score: inactive

SKCVGFIMNFLISSDNEDSN
amyloid nucleation score: 2.27 ± 0.053

GVNDRGNKRYAPYKTWLRLE
amyloid nucleation score: inactive

LGESMGRHVKRNKSAPERGM
amyloid nucleation score: inactive

KVADSVIEFMLTCWGIRQDS
amyloid nucleation score: inactive

WSDHMMRALERLPECINKLL
amyloid nucleation score: inactive

RKGTWPHLGTVNRRVQRWVY
amyloid nucleation score: inactive

DISIGQRVRCTIFSGIGPLT
amyloid nucleation score: -0.913 ± 2.5

YSRMCLVY
amyloid nucleation score: inactive

LYRVLSYDLRLDKWCYKTLW
amyloid nucleation score: inactive
